Patent publication EP3467119A1

Target: recombinant caspase-3 (E. coli KRX lysate, pTS1k:caspase-3(T/S))
Test: cell-based or functional assay

- INDUCED luminescence, HisLink purification fraction E1: 2.95e+06
- INDUCED luminescence, HisLink purification fraction E2: 4.09e+07
- INDUCED luminescence, HisLink purification fraction E3: 3.29e+06
- INDUCED luminescence, HisLink purification fraction E4: 216000
- INDUCED luminescence, HisLink purification fraction E5: 48100
- INDUCED luminescence, HisLink purification sample HSS: 1.29e+07
- INDUCED luminescence, HisLink purification sample NSM: 5.82e+06
- INDUCED luminescence, HisLink purification sample WASH: 3.71e+06
- INDUCED luminescence, purified HQ:CBS:HT immobilised on HaloLink plate: 662000
- RESPONSE, HisLink purification fraction E1: 699 fold
- RESPONSE, HisLink purification fraction E2: 212 fold
- RESPONSE, HisLink purification fraction E3: 178 fold
- RESPONSE, HisLink purification fraction E4: 191 fold
- RESPONSE, HisLink purification fraction E5: 178 fold
- RESPONSE, HisLink purification sample HSS: 43 fold
- RESPONSE, HisLink purification sample NSM: 33 fold
- RESPONSE, HisLink purification sample WASH: 479 fold
- RESPONSE, purified HQ:CBS:HT immobilised on HaloLink plate: 96 fold
Substance: HQ:CBS:HT (5x HQ tag:CBS:HaloTag)
